Results: patent US20170016892A1, “LOCALIZED SURFACE PLASMON RESONANCE SENSING OF HUMAN PERFORMANCE BIOMARKERS USING SHORT PEPTIDE RECOGNITION ELEMENTS ON OPTICALLY ACTIVE METAL NANOSTRUCTURES” (Government of the United States as Represented by the …, priority 2015, published 2017)
Where no end group is shown, it is not given here.

How the values were obtained:
[1] = biological target: T1, cTnI (Homo sapiens, UniProt P19429); experiment: binding affinity of phage-display-identified peptide to cTnI; conditions: peptide identified from a phage display peptide library
T1 sequence (P19429 whole entry): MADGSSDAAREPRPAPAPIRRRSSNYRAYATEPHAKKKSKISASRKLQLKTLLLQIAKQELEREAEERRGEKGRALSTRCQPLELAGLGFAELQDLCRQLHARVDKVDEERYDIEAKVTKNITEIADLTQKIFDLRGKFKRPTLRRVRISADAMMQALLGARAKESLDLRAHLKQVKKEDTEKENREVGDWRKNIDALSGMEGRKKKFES
Source text: Human troponin I binding peptide (Seq. ID No. 1), identified from a phage display peptide library, with nanomolar (nM) binding affinity to cTnI. Conjugation of the peptide to AuNR was achieved by introducing a cysteine resident at the C-terminus of the peptide (Seq. ID No. 2), to facilitate binding via an Au—S linkage.

[2] = biological target: troponin (Homo sapiens, UniProt P19429); experiment: detection of troponin in artificial eccrine sweat with peptide-based BPDs (LSPR shift); assay type: binding
Sequence of troponin (P19429 whole entry): as above
Protocol: (§1) Peptide-based BPDs prepared in accordance with embodiments of the present invention were used in detection of troponin in complex physiological fluids, including, for example, human plasma and sweat. To reduce nonspecific binding, the BPDs were first exposed to 1% HAS to block non-specific sites. […] The limit of detection of cTnI in human plasma was 353 pg/mL, which was within physiological relevant concentration range of troponin in human plasma (0.010 ng/mL to 10 ng/mL). […] Moreover, detection of troponin in artificial eccrine sweat at physiologically-relevant concentration was also accomplished (see, FIG. 16B).

[3] = biological target: T1, cTnI; experiment: detection of troponin in human plasma with peptide-based BPDs (LSPR shift); assay type: binding
Protocol: as §1

[4] = biological target: T1, cTnI; experiment: LSPR shift of BPDs on exposure to troponin in buffer; assay type: binding
Protocol: To probe the sensing capability of the BPDs, each BPD was exposed to troponin 1 (3.53 μg/mL in 0.1 M TBS, pH 8.0). […] The higher sensitivity of peptide-AuNR as compared to the sensitivity of the antibody-AuNR was believed to be due to differences in the thickness of the peptide and antibody adsorbate layer.
To probe the limit of detection in both the peptide- and antibody-AuNR BPDs, each BPD was exposed to varying concentrations of cTnI.

[5] = biological target: human serum albumin (HSA) (Homo sapiens, UniProt P02768); experiment: selectivity of BPDs with human serum albumin as interfering protein (LSPR shift); assay type: binding; conditions: high concentrations of HSA
Source text: To compare selectivity of both the peptide- and antibody-AuNR BPDs towards cTnI, human serum albumin (“HSA”) was used as an interfering protein.

[6] = thermal and shelf-life stability of BPDs by measured LSPR shift; assay type: physicochemical; conditions: incubated at 4° C. and at 60° C., each for 48 hrs
Protocol: To compare stability of both the peptide- and antibody-AuNR BPDs, each BPD type was incubated at 4° C. and at 60° C., each for 48 hrs. […] This reduction is believed to be due to antibody denaturation and lose molecular recognition at elevated temperatures.

[7] = biological target: T2, cardiac troponin I (human, UniProt P19429 2-210, limits assumed); experiment: LSPR shift after troponin binding, peptide-AuNR against anti-cTnI-AuNR as reference
T2 construct: It was used in 0.1 M TBS pH 8.0, and spiked in human plasma and artificial eccrine sweat; also called cTnI; troponin 1
T2 sequence (P19429 2-210 limits assumed): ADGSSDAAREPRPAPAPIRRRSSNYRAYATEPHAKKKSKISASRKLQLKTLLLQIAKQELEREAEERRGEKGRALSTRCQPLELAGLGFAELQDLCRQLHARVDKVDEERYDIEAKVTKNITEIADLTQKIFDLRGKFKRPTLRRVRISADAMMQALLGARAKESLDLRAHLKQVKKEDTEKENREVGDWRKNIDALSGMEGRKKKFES

In the case of “Human troponin I binding peptide: Human troponin I binding peptide (Seq. ID No. 1), identified from a phage display peptide library (FYSHSFHENWPS)”, the “binding affinity to cTnI” value [1] is reported as “nanomolar”.

With “peptide-AuNR: Troponin I binding peptide with C-terminal cysteine (Seq. ID No. 2) conjugated to gold nanorods via Au—S linkage, adsorbed on filter paper (FYSHSFHENWPSC; not fully specified (residue 13); also: conjugated to gold nanorods via Au–S bond of C-terminal Cys)” the “LSPR shift with increased troponin concentration” value [2] was “monotonic increase”, the “detection of troponin at physiologically-relevant concentration” value [2] was “accomplished” and the “LSPR shift with increased troponin concentration” value [3] was “monotonic increase”. For the same molecule, the “limit of detection of cTnI in human plasma” value ([3]; BPDs first blocked with 1% HAS) was 353 pg/mL, the “LSPR red shift on exposure to troponin” value ([4]; troponin 1 3.53 μg/mL in 0.1 M TBS, pH 8.0) was 12.3 nm and the “limit of detection of cTnI” value ([4]; varying concentrations of cTnI) was “about 35.3 pg/mL”. The “LSPR shift upon exposure to HSA” value [5] was “small LSPR shifts” and the “stability (measured LSPR shift after incubation)” value [6] was “remarkable thermal and temporal stability”.

B1: Human troponin I binding peptide with a cysteine residue introduced at the C-terminus (Seq. ID No. 2), conjugated to gold nanorods (AuNR) (peptide)
peptide: FYSHSFHENWPSC(AuNR)
notes: ID No. 1 is the parent phage-display peptide; ID No. 2 is the same peptide with an added C-terminal Cys, and it is the form on the AuNRs in the assays; also called peptide-AuNR
In the case of B1, the “LSPR shift relative to antibodies as recognition elements” value [7] is reported as roughly 100 % higher.
